Test results reported in the supplement of paper PMC9732359.
± gives the uncertainty stated by the source.

Assay: protein stability index of a GFP-peptide fusion (yeast GPS) (PSI 1-4); higher = more stable; sorted into four equal gates, so the index is relative within each strain
Conditions: doa10∆
Summary of the method: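 Tiled yeast protein peptides of 17 residues were each joined downstream of GFP, on plasmids that also express Cherry. The pooled library was maintained in yeast, and mid-log cultures in leucine-free medium were sorted into four equal gates on the GFP/Cherry ratio. Plasmids from every gate were amplified by PCR and sequenced on Illumina, with barcodes linking reads to strains. The protein stability index of a peptide is its gate-number-weighted read frequency summed over the gates.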

Row | Sequence | protein stability index
1 | RSTDEFNGAQLKAVTVE [RPT5] | 2.86 ± 0.29
2 | RSTDRDRVKVIECFKPG [CSL4] | 3.14 ± 0.14
3 | RTAKAYLKVSEEEIKKF [PRP8] | 2.98 ± 0.057
4 | RTIANQDHFHRLNYLYQ [RPR2] | 2.64 ± 0.062
5 | RTLEAITATLVGTVRCE [CSL4] | 1.73 ± 0.12
6 | RTLLTEEIEPKLEKLRN [SMC2] | 3.02 ± 0.074
7 | RTLTAVHDKVLEDMVFP [RPS7B] | 3 ± 0.081
8 | RTMLELITQLDGFDPRG [RPT1] | 2.6 ± 0.061
9 | RTTTNTTAEPKAKRAKT [TAF14] | 2.67 ± 0.28
10 | RVHRRNNRWAENNYKKR [RPS23A] | 3.26 ± 0.29
11 | RVIVAGTLDINPDDDYG [FAS1] | 2.38 ± 0.069
12 | RVMKSLSINEKDFVTMA [YCG1] | 2.35 ± 0.073
13 | RVQLSGKIQENIPFWKH [SRP72] | 2.56 ± 0.071
14 | RVRAESLHSNSFSLTVS [YJL039C/NUP192] | 1.74 ± 0.066
15 | RVRTDDSVLLNRGNKKR [YML031W/NDC1] | 3.29 ± 0.13
16 | RYDCSFCGKKTVKRGAA [RPL43A] | 2.07 ± 0.066
17 | RYFFWLQEKNSGNLPLN [RPN13] | 3.04 ± 0.16
18 | RYKPKSHLWEIDIPLDE [RPC37] | 2.81 ± 0.23
19 | SADYEILYEIRALYTPF [YDL116W/NUP84] | 1.86 ± 0.073
20 | SAINQYNRRQDKKNKRL [SNF2] | 3.13 ± 0.083
21 | SAKNRVVILARAKALGI [RPL32] | 1.69 ± 0.05
22 | SAKPTFSFSKSEEERKS [YOR098C/NUP1] | 1.96 ± 0.14
23 | SAKQTAPNNSNGGSEEE [MED7] | 3.45 ± 0.27
24 | SALTSPTDSSKILQKRS [SIR3] | 2.99 ± 0.053
25 | SAPPPALPHVEINQVSL [RGR1] | 2.46 ± 0.074

Row | Sequence | protein stability index
26 | SATSKPAFSFGAKPEEK [YJL041W/NSP1] | 3.1 ± 0.15
27 | SCGEEEFFSTNWLSIFN [REC8] | 3.33 ± 0.098
28 | SCIAVMAGLMHFKKPDI [RRP45] | 2.02 ± 0.062
29 | SDDQQEAVELVIGLDSE [YML103C/NUP188] | 2.9 ± 0.17
30 | SDEEEVTEMSNNANVLG [BRR2] | 3.03 ± 0.065
31 | SDFISKLEYPHTDVSSS [RPN3] | 2.56 ± 0.047
32 | SDGIVLAAERKVTSTLL [PRE9] | 2.39 ± 0.1
33 | SDIPKTTVQVAEEAIVN [PRE4] | 2.92 ± 0.12
34 | SDKTIVPTSIQTKRWPT [SIN4] | 2.32 ± 0.059
35 | SDPLTVFSESCSNESFA [SNU114] | 2.83 ± 0.055
36 | SDRECPKCHSRENVFFQ [RPB9] | 2.88 ± 0.062
37 | SDVLLFQLPTTCVSMAP [RGR1] | 2.25 ± 0.047
38 | SEDSMNVQLRDVIATEP [SMD3] | 2.94 ± 0.1
39 | SEHVFDYFFYFLVLYDV [NUT1] | 2.12 ± 0.039
40 | SEILIISSLMFDEEFDP [IRR1] | 2.5 ± 0.094
41 | SEILSFDPVYTTVITVF [YML103C/NUP188] | 2.08 ± 0.059
42 | SEIWDVSRGQSAVLLET [PRP8] | 2.83 ± 0.16
43 | SELLARDIFQEDEENSD [RGR1] | 3.48 ± 0.12
44 | SEMLAKYSDILLKKATK [CDC53] | 2.62 ± 0.078
45 | SESGSKLNVDQFISSRQ [POP1] | 3.27 ± 0.058
46 | SESKDSDKPSLPSAVDG [YLR335W/NUP2] | 3.41 ± 0.1
47 | SEVGNCSGSGMGGVSAL [FAS2] | 3.15 ± 0.075
48 | SEYSSEASNTPIEHQFN [PRE7] | 3.16 ± 0.078
49 | SFLHVDDKLAYIRVNHA [POP8] | 2.67 ± 0.08
50 | SFVHGVVGQLFQIDNDN [SMC2] | 3.11 ± 0.16

Row | Sequence | protein stability index
51 | SFYRVEKIKKINYHQYI [SSN2] | 1.18 ± 0.081
52 | SGDESNVISSKDWELEA [YDL116W/NUP84] | 3.45 ± 0.08
53 | SGEKIDFLLSDWNKRFS [BRR2] | 2.37 ± 0.061
54 | SGGEREIQRTMLELLNQ [RPT2] | 3.46 ± 0.15
55 | SGGSRNTSESLLVDIQK [SMC2] | 2.59 ± 0.14
56 | SGKLRDYQVQGLNWLIS [ISW2] | 2.58 ± 0.07
57 | SGSTEKAFKICEAAVEI [SIR3] | 2.97 ± 0.11
58 | SGTSVFEVEMILMQQQM [SRP54] | 3.3 ± 0.084
59 | SGVMDKSVLGDGKKHSV [RPO31] | 3.73 ± 0.21
60 | SGVPRLKEILNVAKNMK [RPO21] | 1.23 ± 0.12
61 | SHHLKADTIDHDELIDS [YGL172W/NUP49] | 3.03 ± 0.063
62 | SHTGLVRKYDLNICRQC [RPS29B] | 2.18 ± 0.052
63 | SHTQNIGHLIKTRFKGS [SMC2] | 2.94 ± 0.11
64 | SHVENLEEKLYQMQSNY [YIL149C/MLP2] | 2.45 ± 0.051
65 | SHVNKYGLIRGLKFASF [PRP8] | 1.83 ± 0.067
66 | SIGKNPFNKPNIETGEN [SWI3] | 3.04 ± 0.055
67 | SIGYETELKKITDKTIK [IRR1] | 3.06 ± 0.07
68 | SIIQSKQDCVDWFTYSY [BRR2] | 1.58 ± 0.037
69 | SILRKSSPEEPFMSYSP [SNF12] | 2.64 ± 0.074
70 | SILVIVQKILPLSNEVF [SWI1] | 1.37 ± 0.045
71 | SIPPATIETFNEAALVV [RPB5] | 3.09 ± 0.18
72 | SIQDTSTVAKNVSFVLP [YCG1] | 3.21 ± 0.11
73 | SIQEQIQEFQGNPYIEL [SNF5] | 3.16 ± 0.071
74 | SIRSRRPYQVNVLIGGY [PRE1] | 2.34 ± 0.17

Same assay, conditions: pdr5∆

Row | Sequence | protein stability index
75 | RSTDEFNGAQLKAVTVE [RPT5] | 3.71 ± 0.24
76 | RSTDRDRVKVIECFKPG [CSL4] | 3.1 ± 0.2
77 | RTAKAYLKVSEEEIKKF [PRP8] | 3.11 ± 0.075
78 | RTIANQDHFHRLNYLYQ [RPR2] | 2.88 ± 0.043
79 | RTLEAITATLVGTVRCE [CSL4] | 1.91 ± 0.12
80 | RTLLTEEIEPKLEKLRN [SMC2] | 3 ± 0.068
81 | RTLTAVHDKVLEDMVFP [RPS7B] | 3.09 ± 0.069
82 | RTMLELITQLDGFDPRG [RPT1] | 2.81 ± 0.061
83 | RTTTNTTAEPKAKRAKT [TAF14] | 2.98 ± 0.25
84 | RVHRRNNRWAENNYKKR [RPS23A] | 3.55 ± 0.21
85 | RVIVAGTLDINPDDDYG [FAS1] | 2.87 ± 0.073
86 | RVMKSLSINEKDFVTMA [YCG1] | 2.06 ± 0.052
87 | RVQLSGKIQENIPFWKH [SRP72] | 2.44 ± 0.067
88 | RVRAESLHSNSFSLTVS [YJL039C/NUP192] | 1.76 ± 0.072
89 | RVRTDDSVLLNRGNKKR [YML031W/NDC1] | 3.4 ± 0.16
90 | RYDCSFCGKKTVKRGAA [RPL43A] | 2.13 ± 0.071
91 | RYFFWLQEKNSGNLPLN [RPN13] | 3 ± 0.085
92 | SAAINNEDARAIFNNEF [RPN4] | 3.21 ± 0.23
93 | SADYEILYEIRALYTPF [YDL116W/NUP84] | 2.21 ± 0.068
94 | SAINQYNRRQDKKNKRL [SNF2] | 3.34 ± 0.082
95 | SAKNRVVILARAKALGI [RPL32] | 1.74 ± 0.061
96 | SALTSPTDSSKILQKRS [SIR3] | 3.12 ± 0.054
97 | SAPPPALPHVEINQVSL [RGR1] | 2.96 ± 0.11
98 | SATSKPAFSFGAKPEEK [YJL041W/NSP1] | 3.31 ± 0.22

Row | Sequence | protein stability index
99 | SCGEEEFFSTNWLSIFN [REC8] | 3.29 ± 0.073
100 | SCIAVMAGLMHFKKPDI [RRP45] | 1.66 ± 0.053
101 | SDDQQEAVELVIGLDSE [YML103C/NUP188] | 3.54 ± 0.12
102 | SDEEEVTEMSNNANVLG [BRR2] | 3.1 ± 0.049
103 | SDFISKLEYPHTDVSSS [RPN3] | 2.88 ± 0.054
104 | SDGIVLAAERKVTSTLL [PRE9] | 1.58 ± 0.065
105 | SDIPKTTVQVAEEAIVN [PRE4] | 2.72 ± 0.09
106 | SDKTIVPTSIQTKRWPT [SIN4] | 2.6 ± 0.055
107 | SDPLTVFSESCSNESFA [SNU114] | 2.96 ± 0.057
108 | SDPQMKVFDTLTRFSHD [RPN1] | 2.84 ± 0.15
109 | SDRECPKCHSRENVFFQ [RPB9] | 2.74 ± 0.061
110 | SDVLLFQLPTTCVSMAP [RGR1] | 1.83 ± 0.036
111 | SEDSMNVQLRDVIATEP [SMD3] | 3.36 ± 0.098
112 | SEHVFDYFFYFLVLYDV [NUT1] | 2.06 ± 0.033
113 | SEILIISSLMFDEEFDP [IRR1] | 2.63 ± 0.095
114 | SEILSFDPVYTTVITVF [YML103C/NUP188] | 2.27 ± 0.051
115 | SEIWDVSRGQSAVLLET [PRP8] | 2.65 ± 0.15
116 | SELAPIEEHPTVVDAID [IRR1] | 3.62 ± 0.19
117 | SELLARDIFQEDEENSD [RGR1] | 3.37 ± 0.12
118 | SEMLAKYSDILLKKATK [CDC53] | 2.44 ± 0.12
119 | SESGSKLNVDQFISSRQ [POP1] | 3.37 ± 0.063
120 | SESKDSDKPSLPSAVDG [YLR335W/NUP2] | 3.38 ± 0.1
121 | SEVGNCSGSGMGGVSAL [FAS2] | 3.38 ± 0.064
122 | SEYSSEASNTPIEHQFN [PRE7] | 3.21 ± 0.072

Row | Sequence | protein stability index
123 | SFLHVDDKLAYIRVNHA [POP8] | 2.29 ± 0.068
124 | SFVHGVVGQLFQIDNDN [SMC2] | 3.13 ± 0.12
125 | SFYRVEKIKKINYHQYI [SSN2] | 1.36 ± 0.06
126 | SGDESNVISSKDWELEA [YDL116W/NUP84] | 3.36 ± 0.052
127 | SGEKIDFLLSDWNKRFS [BRR2] | 2.72 ± 0.055
128 | SGGEREIQRTMLELLNQ [RPT2] | 3.74 ± 0.2
129 | SGGSRNTSESLLVDIQK [SMC2] | 2.22 ± 0.16
130 | SGKLRDYQVQGLNWLIS [ISW2] | 2.71 ± 0.053
131 | SGSTEKAFKICEAAVEI [SIR3] | 2.71 ± 0.11
132 | SGTSVFEVEMILMQQQM [SRP54] | 3.23 ± 0.071
133 | SGVMDKSVLGDGKKHSV [RPO31] | 3.71 ± 0.28
134 | SGVPRLKEILNVAKNMK [RPO21] | 1.83 ± 0.12
135 | SHHLKADTIDHDELIDS [YGL172W/NUP49] | 3.25 ± 0.046
136 | SHTGLVRKYDLNICRQC [RPS29B] | 2.51 ± 0.068
137 | SHTQNIGHLIKTRFKGS [SMC2] | 1.98 ± 0.086
138 | SHVENLEEKLYQMQSNY [YIL149C/MLP2] | 2.84 ± 0.05
139 | SHVNKYGLIRGLKFASF [PRP8] | 1.85 ± 0.065
140 | SIGKNPFNKPNIETGEN [SWI3] | 3.03 ± 0.048
141 | SIGYETELKKITDKTIK [IRR1] | 3.12 ± 0.066
142 | SIIQSKQDCVDWFTYSY [BRR2] | 1.78 ± 0.037
143 | SILRKSSPEEPFMSYSP [SNF12] | 2.74 ± 0.075
144 | SILVIVQKILPLSNEVF [SWI1] | 1.34 ± 0.039
145 | SIPPATIETFNEAALVV [RPB5] | 2.46 ± 0.15
146 | SIQDTSTVAKNVSFVLP [YCG1] | 2.92 ± 0.074
